{
  "source": "patent US20020115167",
  "target": "T1, Dishevelled (Dsh) protein, Drosophila, P51140",
  "T1 chain": "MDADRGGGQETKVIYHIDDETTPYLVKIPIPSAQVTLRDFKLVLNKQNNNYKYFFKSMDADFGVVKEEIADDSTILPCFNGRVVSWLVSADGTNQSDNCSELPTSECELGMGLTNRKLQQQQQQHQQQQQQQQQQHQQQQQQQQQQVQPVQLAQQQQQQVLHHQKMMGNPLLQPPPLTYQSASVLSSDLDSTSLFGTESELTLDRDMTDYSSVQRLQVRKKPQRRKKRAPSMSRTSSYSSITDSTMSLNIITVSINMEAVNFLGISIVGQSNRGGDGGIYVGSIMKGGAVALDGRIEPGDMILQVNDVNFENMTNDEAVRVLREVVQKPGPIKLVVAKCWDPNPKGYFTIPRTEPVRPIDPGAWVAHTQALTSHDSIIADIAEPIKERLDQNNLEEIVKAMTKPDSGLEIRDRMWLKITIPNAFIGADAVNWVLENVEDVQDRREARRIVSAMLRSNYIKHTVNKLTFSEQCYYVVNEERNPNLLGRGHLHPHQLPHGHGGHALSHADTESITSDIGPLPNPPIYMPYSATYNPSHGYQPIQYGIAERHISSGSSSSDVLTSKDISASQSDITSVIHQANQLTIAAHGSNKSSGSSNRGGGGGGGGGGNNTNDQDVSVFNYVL",
  "data": [
    {"protein": "Drosophila PAR-1 (dPAR-1), the Dishevelled-associated kinase (protein) MSTAMRTTLQSVPEALPADSVSNGTASNVAAPAAPVSSATNAVPPLAAVSSTTATYATNSISTSSHSVKDQQQQQQQQQHDSANANIVSLPPTTTPVANTNTMMPIVTSSNSATSNSTAATPTPASGAAATGGVGSVSQGPATVSASAANTNHSHQHSHQHHHHVANNMTTDGARLSSNNSAVVASSAINHHHHHTPGSGVAPTVNKNVLSTHSAHPSAIKQRTSSAKGSPNMQMRSSAPMRWRATEEHIGKYKLIKTIGKGNFAKVKLAKHLPTGKEVAIKIIDKTQLNPGSLQKLFREVRIMKMLDHPNIVKLFQVIETEKTLYLIMEYASGGEVFDYLVLHGRMKEKEARVKFRQIVSAVQYCHQKRIIHRDLKAENLLLDSELNIKIADFGFSNEFTPGSKLDTFCGSPPYAAPELFQGKKYDGPEVDVWSLGVILYTLVSGSLPFDGSTLRELRERVLRGKYRIPFYMSTDCENLLRKFLVLNPAKRASLETIMGDKWMNMGFEEDELKPYIEPKADLADPKRIEALVAMGYNRSEIEASLSQVRYDDVFATYLLLGRKSTDPESDGSRSGSSLSLRNISGNDAGANAGSASVQSPTHRGVHRSISASSTKPSRRASSGAETLRVGPTNAAATVAAATGAVGAVNPSNNYNAAGSAADRASVGSNFKRQNTIDSATIKENTARLAAQNQRPASATQKMLTTADTTLNSPAKPRTATKYDPTNGNRTVSGTSGIIPRRSTTLYEKTSSTEKTNVIPAETKMASAVKSSRHFPRNVPSRSTFHSGQTRARNNTALEYSGTSGASGDSSHPGRMSFFSKLSSRFSKRPNQ", "values": [
      {"measurement": "in-gel in vitro kinase assay", "value": "these bands phosphorylated the Dsh substrate impregnated in the gel"}
    ]}
  ]
}
